According to patent US20110293511A1, “SPECIFIC BINDING PROTEINS AND USES THEREOF” (priority 2009, published 2011):

Columns and labels:
[1] = target: wild-type EGFR (wtEGFR) (human) (UniProt P00533); assay: immunohistochemistry on glioblastoma tissue; EGFR amplified, no de2-7 EGFR
de2-7 EGFR (human) = de2-7 EGFR (human) (UniProt P00533); assay: immunohistochemistry on glioblastoma tissue; EGFR amplified, de2-7 EGFR expressed
[2] = target: wild-type EGFR (wtEGFR) (human) (UniProt P00533); assay: Scatchard, 125I-labeled 528 on A431 cells
[3] = target: wild-type EGFR (wtEGFR) (human) (UniProt P00533); assay: Scatchard, A431 cells

In the case of mAb528 (antibody), the percent of immunoreactive cells (immunohistochemistry) [1] is reported as > 75%, the percent of immunoreactive cells (immunohistochemistry) (de2-7 EGFR (human)) is reported as > 75% and the binding sites per cell (sites per cell) [2] is reported as 2e+06. It also gave a receptors per cell (receptors per cell) [3] of 2e+06.
